Experimental data taken from patent publication US20230049152A1 (Genentech, published 2023).
Residue numbers refer to the chain shown, from its start. One block for each binder: values may come before it.

Legend:
[1] = biological target: T1, human CCR8.CCR5 chimera ECL2 (human, UniProt P51681 167-189); assay: flow cytometry, 293 cells transfected with the CCR8.CCR5 chimera ECL2 with C-terminal FLAG
T1 construct: domain: ECL2; Flanking CCR8 ranges derived from the stated replaced range 172-193; on transfected 293 cells; also called ECL2 chimera
Experimental: To epitope map fucosylated hu.Ab4.H12L3, the binding to chimeric forms of human CCR8 was analyzed by flow cytometry.

L7A = biological target: T2, L7A; assay: flow cytometry, HEK293 transfected with hCCR8 L7A with C-terminal FLAG; sheet prints [huCCR8]=0.02 ug/ml
T2 construct: single alanine mutant of hCCR8; also called hCCR8 L7A
T2 receptor chain: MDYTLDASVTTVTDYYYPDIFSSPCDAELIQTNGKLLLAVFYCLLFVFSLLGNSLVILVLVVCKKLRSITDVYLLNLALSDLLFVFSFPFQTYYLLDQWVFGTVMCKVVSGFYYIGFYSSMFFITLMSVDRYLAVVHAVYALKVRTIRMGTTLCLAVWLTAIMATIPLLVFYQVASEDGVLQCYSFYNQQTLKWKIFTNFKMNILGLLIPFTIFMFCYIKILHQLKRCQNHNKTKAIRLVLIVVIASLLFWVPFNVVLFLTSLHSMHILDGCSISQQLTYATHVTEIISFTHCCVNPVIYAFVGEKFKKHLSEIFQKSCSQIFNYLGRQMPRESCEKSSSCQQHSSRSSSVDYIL

D19A = biological target: T3, D19A; assay: flow cytometry, HEK293 transfected with hCCR8 D19A with C-terminal FLAG; sheet prints [huCCR8]=0.02 ug/ml
T3 construct: single alanine mutant of hCCR8; also called hCCR8 D19A
T3 receptor chain: T2 receptor chain with A7L, D19A
Experimental: FIGS. 16A-16B depict the epitope maps for hu.Ab5.H13L1 (FIG. 16A) and hu.Ab4.H12L3 (FIG. 16B) mAbs.
To epitope map fucosylated hu.Ab5.H13L1, the binding to alanine point mutations in human CCR8 was analyzed by flow cytometry.

[2] = biological target: T4, CCR8 with C-terminal FLAG; assay: flow cytometry, HEK293 transfected with CCR8 with C-terminal FLAG
T4 construct: expressed on transfected HEK293 cells; also called hCCR8 with a C-terminal FLAG tag

S22A = biological target: T5, S22A; assay: flow cytometry, HEK293 transfected with hCCR8 S22A with C-terminal FLAG; sheet prints [huCCR8]=0.02 ug/ml
T5 construct: single alanine mutant of hCCR8; also called hCCR8 S22A
T5 receptor chain: T2 receptor chain with A7L, S22A

- binding result [1]: no binding
B1: hu.Ab4.H12L3 (antibody, human IgG1, kappa)
heavy: not shown
light: DYQMTQSPSSLSASVGDRVTITCQASQSISSYLSWYQQKPGKAPKLLIYKASTLASGVPSRFSGSGSGTDFTLTISSLQPEDFATYYCQQGYTSSNIDNIFGGGTKVEIKRTVAAPSVFIFPPSDEQLKSGTASVVCLLNNFYPREAKVQWKVDNALQSGNSQESVTEQDSKDSTYSLSSTLTLSKADYEKHKVYACEVTHQGLSSPVTKSFNRGEC
notes: fucosylated human IgG1; also called huCCR8-Ab4.H12L3.hIgG1; Ab4 variant

- binding result (L7A): binds
- binding result (D19A): binds
- binding result [2]: binds
- binding result (S22A): binds
B2: hu.Ab5.H13L1 (antibody, human IgG1, kappa)
heavy: not shown
light: DIQVTQSPSSLSASVGDRVTITCQASENIANALAWYQQKPGKPPKFLIYGASNLASGVPSRFSGSGSGTDFTFTISSLQPEDIATYYCQQAYYGNSFVEGTFGGGTKVEIKRTVAAPSVFIFPPSDEQLKSGTASVVCLLNNFYPREAKVQWKVDNALQSGNSQESVTEQDSKDSTYSLSSTLTLSKADYEKHKVYACEVTHQGLSSPVTKSFNRGEC
notes: fucosylated human IgG1; also called Ab5 variant
